Test results taken from the supplement of paper PMC10126150.
± gives the standard deviation of the averaged measurements.

system: ATP; experiment: switch fluorescence ratio, 500 uM ATP over buffer (Cy3 cluster intensity, sum of 5 cycles each) (fold (ratio)); higher = stronger signal-on switching upon ATP binding; sequences stand for … in TCGTCGGCAGCGTCAGATGTGTATAAGAGACAGTTTTTTTTTTTTTTTTTTTTTTTTT…TC; settings: aptamer strand: ATP DNA aptamer (quencher-CACCTGGGGGAGTATTGCGGAGGAAGG + anchor), 100 nM annealed; ATP concentration: 500 uM
Outline: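 Per cluster, summed Cy3 intensity from the target cycles was divided by that from the buffer cycles to give the fluorescence ratio, then averaged per switch-domain sequence. Clusters outside 100-1000 RFU were excluded. The Cy3-labelled switching-strand clusters, on a modified Illumina MiSeq flow-cell, were annealed to 100 nM quencher-labelled ATP aptamer and imaged in selection buffer, then after 15 min with 500 uM ATP at 22 °C, for five cycles with NaOH stripping and re-annealing between them.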
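Further: ATP exposure 15 min at 22 °C before imaging.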

| Sequence | switch fluorescence ratio |
| --- | --- |
| ATCTGATCGA | 0.96 ± 0.037 |
| ATCTGATTGA | 0.97124 ± 0.00072 |
| ATCTGGAGTT | 1.01 ± 0.018 |
| ATCTGGCGTC | 0.998 ± 0.033 |
| ATCTGGTATG | 0.957 ± 0.037 |
| ATCTGGTGCT | 1.052 ± 0.0059 |
| ATCTGTCCAG | 1 ± 0.071 |
| ATCTGTGAGG | 1.019 ± 0.0063 |
| ATCTTATCGT | 0.982 ± 0.027 |
| ATCTTCTAGT | 0.953 ± 0.041 |
| ATCTTGGACG | 1.05 ± 0.027 |
| ATCTTTACCT | 1.26 ± 0.036 |
| ATCTTTAGTA | 1 ± 0.014 |
| ATCTTTGGTA | 0.9826 ± 0.0074 |
| ATCTTTTTGT | 1.014 ± 0.005 |
| ATGAAAATAC | 1.01 ± 0.03 |
| ATGAAAATTT | 1.05 ± 0.017 |
| ATGAAAGGGA | 1.02 ± 0.042 |
| ATGAAAGTGC | 1.02 ± 0.017 |
| ATGAAATTTT | 1.0061 ± 0.00088 |
| ATGAAGCAGG | 1.15 ± 0.058 |
| ATGAAGGGGG | 1.03 ± 0.042 |
| ATGAAGGGGT | 0.959 ± 0.033 |
| ATGAATAATG | 1.01 ± 0.026 |
| ATGAATTTGC | 0.979 ± 0.044 |

| Sequence | switch fluorescence ratio |
| --- | --- |
| ATGAATTTGT | 1.01 ± 0.032 |
| ATGACAGGAT | 1 ± 0.023 |
| ATGACCGGGG | 1.02 ± 0.023 |
| ATGACGTATT | 1.02 ± 0.052 |
| ATGACTTCGG | 0.99 ± 0.028 |
| ATGAGAATTA | 1.006 ± 0.0023 |
| ATGAGAATTT | 1.01 ± 0.049 |
| ATGAGAGGTT | 0.994 ± 0.049 |
| ATGAGCCAGT | 1.003 ± 0.004 |
| ATGAGCGGCG | 0.9917 ± 0.0012 |
| ATGAGCTATT | 1.03 ± 0.027 |
| ATGAGGAAGT | 0.987 ± 0.023 |
| ATGAGGAATG | 1.008 ± 0.0043 |
| ATGAGGAGGG | 1.02 ± 0.023 |
| ATGAGGCATT | 1.04 ± 0.016 |
| ATGAGGCCGG | 1.12 ± 0.066 |
| ATGAGGGCTT | 0.981 ± 0.055 |
| ATGAGGGGAG | 0.997 ± 0.013 |
| ATGAGGGGGG | 0.986 ± 0.031 |
| ATGAGGGT | 1.01 ± 0.015 |
| ATGAGGTTGG | 0.973 ± 0.055 |
| ATGAGTAAGG | 0.991 ± 0.013 |
| ATGAGTAGGA | 1.017 ± 0.0061 |
| ATGAGTATGT | 0.9961 ± 0.0014 |
| ATGAGTCATT | 0.987 ± 0.026 |

| Sequence | switch fluorescence ratio |
| --- | --- |
| ATGAGTGCTT | 0.9776 ± 0.0075 |
| ATGATAATGT | 0.985 ± 0.014 |
| ATGATAGAGG | 0.991 ± 0.025 |
| ATGATATCTC | 1.02 ± 0.047 |
| ATGATCGGAT | 0.977 ± 0.051 |
| ATGATGAATA | 0.949 ± 0.017 |
| ATGATGCGTG | 0.981 ± 0.015 |
| ATGATGGGGG | 0.984 ± 0.027 |
| ATGATGTGGT | 0.992 ± 0.022 |
| ATGATTAATT | 1.03 ± 0.017 |
| ATGATTCGTG | 0.972 ± 0.028 |
| ATGATTGATG | 1.02 ± 0.019 |
| ATGATTGCGT | 0.991 ± 0.018 |
| ATGATTGGCA | 0.99 ± 0.026 |
| ATGATTTACT | 1.02 ± 0.02 |
| ATGATTTCGT | 0.9793 ± 0.0085 |
| ATGATTTGGG | 1.01 ± 0.011 |
| ATGCAAGGGC | 1.08 ± 0.024 |
| ATGCAAGGTT | 1.01 ± 0.018 |
| ATGCAATCAT | 1.038 ± 0.0026 |
| ATGCAATGTC | 1.38 ± 0.22 |
| ATGCACGAAG | 1 ± 0.057 |
| ATGCACGGGC | 1.01 ± 0.047 |
| ATGCACTGCT | 1.04 ± 0.021 |
| ATGCAGGTCC | 1.03 ± 0.037 |

| Sequence | switch fluorescence ratio |
| --- | --- |
| ATGCAGTATT | 1.03 ± 0.025 |
| ATGCATTAAG | 0.992 ± 0.051 |
| ATGCCATGTG | 1 ± 0.022 |
| ATGCCATTAA | 0.9718 ± 0.0018 |
| ATGCCCAGCT | 1.0068 ± 0.00025 |
| ATGCGAGCGG | 0.985 ± 0.014 |
| ATGCGATTTG | 1 ± 0.057 |
| ATGCGCACCG | 1.05 ± 0.023 |
| ATGCGCAGAT | 1.046 ± 0.0063 |
| ATGCGCTAAT | 1.07 ± 0.013 |
| ATGCGCTCTA | 0.992 ± 0.018 |
| ATGCGGTTTT | 0.986 ± 0.03 |
| ATGCTAGTTG | 0.98924 ± 0.0007 |
| ATGCTGAGGA | 0.977 ± 0.042 |
| ATGCTGGTAT | 0.981 ± 0.024 |
| ATGCTGGTTA | 0.996 ± 0.016 |
| ATGCTTAGTT | 1.03 ± 0.051 |
| ATGCTTATGG | 0.994 ± 0.037 |
| ATGCTTATTG | 0.973 ± 0.015 |
| ATGCTTGAAC | 1.037 ± 0.0095 |
| ATGCTTTCAG | 0.983 ± 0.012 |
| ATGGAAAATG | 1.04 ± 0.037 |
| ATGGAACGGA | 1.03 ± 0.027 |
| ATGGAAGGAT | 1.005 ± 0.0065 |
| ATGGAATAAG | 0.998 ± 0.028 |

| Sequence | switch fluorescence ratio |
| --- | --- |
| ATGGACGCCT | 1.01 ± 0.037 |
| ATGGACGTGT | 0.9935 ± 0.0033 |
| ATGGACTAGG | 1.02 ± 0.022 |
| ATGGAGAGGG | 0.987 ± 0.037 |
| ATGGAGATAG | 1.01 ± 0.026 |
| ATGGAGCTTG | 0.983 ± 0.02 |
| ATGGAGGCAA | 1.37 ± 0.12 |
| ATGGAGGCTT | 0.975 ± 0.018 |
| ATGGAGGGAC | 1.48 ± 0.66 |
| ATGGAGGGCA | 1.03 ± 0.049 |
| ATGGAGGGGT | 1 ± 0.045 |
| ATGGAGGTAG | 0.995 ± 0.027 |
| ATGGAGGTCT | 1.01 ± 0.055 |
| ATGGATAT | 0.98 ± 0.031 |
| ATGGATCCGG | 1.03 ± 0.083 |
| ATGGATGATG | 0.991 ± 0.018 |
| ATGGATGCGT | 0.967 ± 0.015 |
| ATGGATGGGG | 0.998 ± 0.028 |
| ATGGATTTT | 1.001 ± 0.0019 |
| ATGGCAGCAT | 1.012 ± 0.0057 |
| ATGGCCAGCA | 1.01 ± 0.03 |
| ATGGCCGGCC | 1.01 ± 0.02 |
| ATGGCCGGGA | 0.999 ± 0.016 |
| ATGGCCTATA | 1.01 ± 0.028 |
| ATGGCTGTGG | 0.9852 ± 0.0085 |

| Sequence | switch fluorescence ratio |
| --- | --- |
| ATGGCTTAGC | 0.983 ± 0.015 |
| ATGGGAAACG | 0.995 ± 0.014 |
| ATGGGAATTT | 0.996 ± 0.028 |
| ATGGGACGGG | 1 ± 0.019 |
| ATGGGACGTT | 0.983 ± 0.037 |
| ATGGGAGATG | 0.983 ± 0.0045 |
| ATGGGAGGAT | 1.018 ± 0.0027 |
| ATGGGAGGGT | 0.997 ± 0.061 |
| ATGGGCGAAC | 1.63 ± 0.82 |
| ATGGGCGGGG | 0.9947 ± 0.0065 |
| ATGGGCTATA | 1.03 ± 0.094 |
| ATGGGCTCAG | 1.005 ± 0.0033 |
| ATGGGCTCCG | 0.974 ± 0.015 |
| ATGGGCTGAG | 0.992 ± 0.017 |
| ATGGGCTGG | 0.975 ± 0.031 |
| ATGGGCTTCT | 1.018 ± 0.0091 |
| ATGGGCTTGC | 0.994 ± 0.083 |
| ATGGGGACTT | 0.979 ± 0.035 |
| ATGGGGAGCG | 0.992 ± 0.031 |
| ATGGGGATAC | 1.06 ± 0.026 |
| ATGGGGCTTG | 1.05 ± 0.099 |
| ATGGGGGAGC | 0.981 ± 0.011 |
| ATGGGGGATA | 0.973 ± 0.041 |
| ATGGGGGTGC | 0.99 ± 0.026 |
| ATGGGGTAAT | 1.01 ± 0.028 |

| Sequence | switch fluorescence ratio |
| --- | --- |
| ATGGGGTCTG | 1.05 ± 0.095 |
| ATGGGGTGTA | 1 ± 0.03 |
| ATGGGGTGTT | 1 ± 0.024 |
| ATGGGTCAAT | 1 ± 0.014 |
| ATGGGTCTCT | 0.997 ± 0.017 |
| ATGGGTCTGC | 1.16 ± 0.31 |
| ATGGGTGATC | 1.01 ± 0.011 |
| ATGGGTGGG | 0.965 ± 0.032 |
| ATGGGTGTAC | 1.01 ± 0.016 |
| ATGGGTGTCC | 1.004 ± 0.0056 |
| ATGGTACACC | 1.04 ± 0.013 |
| ATGGTAGCTT | 1 ± 0.024 |
| ATGGTAGGGG | 0.986 ± 0.014 |
| ATGGTAGGTG | 1.04 ± 0.083 |
| ATGGTATCAG | 1.007 ± 0.0084 |
| ATGGTATGGT | 0.9855 ± 0.0081 |
| ATGGTCAGGG | 0.987 ± 0.026 |
| ATGGTCGGAT | 0.9804 ± 0.0098 |
| ATGGTCGGTC | 0.989 ± 0.036 |
| ATGGTGAATT | 1.016 ± 0.0044 |
| ATGGTGCGGG | 1.02 ± 0.033 |
| ATGGTGGGAG | 0.992 ± 0.0061 |
| ATGGTTAGGT | 1.02 ± 0.029 |
| ATGGTTCCTG | 1.03 ± 0.078 |
| ATGGTTTAA | 1 ± 0.044 |

| Sequence | switch fluorescence ratio |
| --- | --- |
| ATGGTTTACG | 1.05 ± 0.077 |
| ATGGTTTTGT | 0.959 ± 0.022 |
| ATGGTTTTTT | 1 ± 0.032 |
| ATGTAAAGAC | 1.05 ± 0.04 |
| ATGTAAAGCA | 1.02 ± 0.036 |
| ATGTAAAGGT | 1.04 ± 0.058 |
| ATGTAAATGC | 0.995 ± 0.02 |
| ATGTAACATG | 1 ± 0.027 |
| ATGTAAGTGC | 0.967 ± 0.064 |
| ATGTAATATA | 1.02 ± 0.06 |
| ATGTAATATT | 1.01 ± 0.033 |
| ATGTAATCAT | 1.01 ± 0.024 |
| ATGTAATTTA | 1 ± 0.017 |
| ATGTACGATA | 1.14 ± 0.043 |
| ATGTAGCATT | 1.21 ± 0.0026 |
| ATGTAGCTGG | 1.07 ± 0.033 |
| ATGTAGGGGA | 1.0051 ± 0.001 |
| ATGTAGGGGC | 1.03 ± 0.046 |
| ATGTAGGTGA | 1.03 ± 0.017 |
| ATGTAGTCGC | 1.004 ± 0.0012 |
| ATGTAGTTAT | 0.996 ± 0.048 |
| ATGTAGTTCG | 0.981 ± 0.03 |
| ATGTATACTT | 1.09 ± 0.14 |
| ATGTATAGCC | 0.995 ± 0.036 |
| ATGTATAGGA | 0.992 ± 0.029 |
